Values joined by “and” are separate entries in the source; they are usually repeats but may differ in a detail not shown here. Identical values can stand only once.
Tests used:
[1] = target: Chaetomium thermophilum Prp43 with fluorescence labelling sites at C170 (RecA1) and C303 (RecA2), Cy3/Cy5-labelled (Chaetomium thermophilum)
[2] = target: scPrp43 (Saccharomyces cerevisiae S288c) (UniProt P53131); experiment: smFRET (TIRF); settings: smFRET: 50 mM Tris-HCl pH 7.5, 150 mM KCl, 3 mM MgCl2 (TIRF buffer B; imaging in TIRF buffer C), FP: 6 nM labeled ssRNA, buffer and temperature not in material
[3] = target: T1, scPrp43;scPfa1(gp) (Saccharomyces cerevisiae S288c;Saccharomyces cerevisiae) (UniProt P53131+P53866); experiment: smFRET (TIRF); settings: smFRET: 50 mM Tris-HCl pH 7.5, 150 mM KCl, 3 mM MgCl2 (TIRF buffer B; imaging in TIRF buffer C), FP: 6 nM labeled ssRNA, buffer and temperature not in material
[4] = target: scPrp43 (Saccharomyces cerevisiae S288c) (UniProt P53131); experiment: fluorescence polarization; settings: smFRET: 50 mM Tris-HCl pH 7.5, 150 mM KCl, 3 mM MgCl2 (TIRF buffer B; imaging in TIRF buffer C), FP: 6 nM labeled ssRNA, buffer and temperature not in material
[5] = target: T1, scPrp43;scPfa1(gp) (Saccharomyces cerevisiae S288c;Saccharomyces cerevisiae); experiment: fluorescence polarization; settings: smFRET: 50 mM Tris-HCl pH 7.5, 150 mM KCl, 3 mM MgCl2 (TIRF buffer B; imaging in TIRF buffer C), FP: 6 nM labeled ssRNA, buffer and temperature not in material

Substance “G-patch motif of Chaetomium thermophilum Pfa1 (domain or fragment)” has an ATP turnover (kcat) of the Prp43–Pfa1(gp) complex with ssRNA, coupled enzymatic assay [1] of 9.6 s⁻¹ and an ATP turnover (kcat) of the Prp43–Pfa1(gp) complex without ssRNA, coupled enzymatic assay (Prp43 alone: kcat = 0.01 s^-1) [1] of 0.4 s⁻¹.

For “GCGCCUACGCCACCAGCUCCGUAGGCGCAGGAGCGCCUACGGAGCUGGUGGCGUAGGCGCAAAAAAAAAAAAAAAUAAAAAAAAAAAAAAAAAAAA [smFRET stem-loop RNA probe with 3' overhang]”, the binding signal ([2]; 0.5 uM Prp43, 2 mM AMPPNP) was 36 % bound, the binding signal ([2]; 5 uM Prp43, apo (main text gives 24%)) was 21 % bound and the binding signal ([3]; 0.5 uM Prp43, 2.5 uM Pfa1(gp), nucleotide-free) was 88 % bound. The binding signal (% bound (plus 20% partially unwound)) ([3]; 2 uM ATP, table row label cut, matched by FRET values) was 55 and the binding signal ([3]; ADP, koff 0.45 s-1) was 52 % bound.

ssRNA (fluorescence polarization) was tested, and the Kd ([4]; ADP) was over 100000 nM, the Kd ([4]; AMPPNP) was 400 nM and the Kd ([4]; nucleotide-free) was 7000 nM. For the same substance, the Kd ([5]; nucleotide-free, with Pfa1(gp)) was 30 nM and the Kd [5] was 80 nM and 500 nM.
